Measurements as given in PMC7835884.
“And” between values parts separate entries of the source, which are not always exact repeats. Equal entries are not always repeated.

Experiments:
[1] = molecular target: N-terminal 6X-His tagged TfAcCCB (carboxyltransferase subunit of Thermobifida fusca YX acyl-CoA carboxylase) (Thermobifida fusca YX)
[2] = molecular target: N-terminal 6X-His tagged TfAcCCB (carboxyltransferase subunit of Thermobifida fusca YX acyl-CoA carboxylase) (Thermobifida fusca YX); experiment: pull-down; subunits co-expressed in E. coli; Ni-NTA affinity chromatography via the His-tag on TfAcCCB; SDS-PAGE with Coomassie staining and densitometry, or Western blot with anti-S-tag antibody (Figure 1A, 1B)
[3] = molecular target: N-terminal 6X-His tagged TfAcCCB (carboxyltransferase subunit of Thermobifida fusca YX acyl-CoA carboxylase) (Thermobifida fusca YX); experiment: SEC; Ni-NTA purified His-tagged TfAcCCB-TfAcCCE subcomplex or His-tagged TfAcCCA; Superdex 200 10/300 GL; 100 mM potassium phosphate pH 7.6, 0.75 mM DTT, 1 mM EDTA, 20% glycerol; apparent molecular weights against standards (Figure 2C, 2D)
[4] = molecular target: N-terminal 6X-His tagged TfAcCCB (carboxyltransferase subunit of Thermobifida fusca YX acyl-CoA carboxylase) (Thermobifida fusca YX); experiment: SEC; Ni-NTA purified holoenzyme from co-expression of all three subunits (wild-type or D427I TfAcCCB); Superdex 200 10/300 GL; 100 mM potassium phosphate pH 7.6, 0.75 mM DTT, 1 mM EDTA, 20% glycerol; apparent molecular weights against standards; peaks analysed by SDS-PAGE (Figure 2A, 2B)
[5] = molecular target: TfAcCCA (biotin carboxylase / biotin carboxyl carrier subunit of Thermobifida fusca YX acyl-CoA carboxylase), without tag (Thermobifida fusca YX); experiment: as above

Row | Substance | specificity constant (Vmax/Km) of acyl-CoA carboxylation by purified TfAcCCB, made with or without co-expressed TfAcCCE, mixed in vitro with purified TfAcCCA (acetyl-, propionyl- and butyryl-CoA) [1] | stoichiometry N [2] | stoichiometry N [3] | stoichiometry N [4] | stoichiometry N [5]
1 | TfAcCCE (non-catalytic subunit of Thermobifida fusca YX acyl-CoA carboxylase), without tag (natural protein) | 20 fold | 1 molar ratio |  |  | 
2 | N-terminal 6X-His tagged TfAcCCB (carboxyltransferase subunit of Thermobifida fusca YX acyl-CoA carboxylase) (enzyme) |  |  | 6 and 12 and 18 | 6 and 9 and 3 | 
3 | TfAcCCA (biotin carboxylase / biotin carboxyl carrier subunit of Thermobifida fusca YX acyl-CoA carboxylase), without tag (enzyme) |  | 1 molar ratio |  |  | 3 and 6 and 9
